Target: NELF complex WT (NELF-A/B/D/E) (human, UniProt Q9H3P2;Q8WX92;Q8IXH7;P18615 1-528;1-628;1-590;1-380)
Test: fluorescence anisotropy

CCAGAUCUGAGCCUGGGAGCUCUCUGG (structured_RNA) [HIV-1 TAR stem loop]
binding result: binds

— publication doi:10.1101/2024.08.29.610268
